Series [1] has as its target dpIYD (Daphnia pulex, UniProt E9FR69). Description: FMN occupancy of purified enzyme from A450 and A280. The format is binding. The conditions noted are these: FMN bound as isolated.
Series [2] has as its target hmIYD (Hydra vulgaris, UniProt T2MBC4). The description is as above. The class given is binding. The conditions noted are these: FMN bound as isolated; partly purified enzyme.
The target in series [3] is amIYD (Apis mellifera, UniProt A0A7M7RAX7). The description is as above. The conditions noted are these: FMN bound as isolated. The class given is binding.
Series [4] has as its target bfIYD (Branchiostoma floridae, UniProt C3Y0Q6). Described as above. The format is binding. The conditions noted are these: FMN bound as isolated.
Series [5] deals with hhIYD (Haliscomenobacter hydrossis, UniProt F4KU78). Described as above. The format is binding. Particulars: FMN bound as isolated.
Series [6] addresses T1, drIYD (Danio rerio, UniProt E7FDV5).
T1 sequence (E7FDV5 24-295 limits assumed): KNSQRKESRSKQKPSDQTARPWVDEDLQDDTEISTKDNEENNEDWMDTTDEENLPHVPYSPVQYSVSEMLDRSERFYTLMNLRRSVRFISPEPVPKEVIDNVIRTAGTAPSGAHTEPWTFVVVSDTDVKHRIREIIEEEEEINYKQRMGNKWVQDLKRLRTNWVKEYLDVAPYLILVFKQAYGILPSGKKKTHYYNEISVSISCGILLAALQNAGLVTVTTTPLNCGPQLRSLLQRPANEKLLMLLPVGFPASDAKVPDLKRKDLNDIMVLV
Described as above. The format is binding. The conditions noted are these: FMN bound as isolated.

In series [7] the target is nvIYD (Nematostella vectensis, UniProt A7S5D9). The description is as above. The class given is binding. Particulars: FMN bound as isolated.
Substrate in series [8]: N[C@@H](Cc1cc(I)c(O)c(I)c1)C(=O)O
In words: purified protein. The class given is biochemical, Haliscomenobacter hydrossis. Particulars: labelled compound; excess FMN present in assay.

Substrate in series [9]: N[C@@H](Cc1cc(I)c(O)c(I)c1)C(=O)O
Description: purified protein. The format is biochemical, Danio rerio. Particulars: labelled compound; excess FMN present in assay.

Substrate in series [10]: N[C@@H](Cc1cc(I)c(O)c(I)c1)C(=O)O
In words: purified protein. The format is biochemical, Nematostella vectensis. Particulars: labelled compound; excess FMN present in assay.

Substrate in series [11]: N[C@@H](Cc1cc(I)c(O)c(I)c1)C(=O)O
In words: purified protein. The class given is biochemical, Daphnia pulex. Particulars: labelled compound; excess FMN present in assay.

hmIYD, sequence (T2MBC4 43-272): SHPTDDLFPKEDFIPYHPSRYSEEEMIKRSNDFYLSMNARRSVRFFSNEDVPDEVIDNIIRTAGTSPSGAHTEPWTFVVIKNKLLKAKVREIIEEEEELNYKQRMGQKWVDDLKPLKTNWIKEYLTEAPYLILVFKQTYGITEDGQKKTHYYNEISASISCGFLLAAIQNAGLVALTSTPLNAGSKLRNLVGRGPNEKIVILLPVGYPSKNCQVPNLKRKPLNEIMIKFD

Regarding `Cc1cc2nc3c(=O)[nH]c(=O)nc-3n(C[C@H](O)[C@H](O)[C@H](O)COP(=O)(O)O)c2cc1C` [FMN], the FMN occupancy in series [1] is 95%; in series [2] it was 59%; in series [3], 95%; in series [4] it was 95%; in series [5], 95%; in series [6] it was 95%. The molecule also returned an FMN occupancy in series [7] of 55%.

B1: hhIYD (Haliscomenobacter hydrossis DSM 1100) (protein)
chain: MKQKPAFIPYAGAQFEPEEMLSKSAEYYQFMDHRRTVREFSNRAIPLEVIENIVMTASTAPSGAHKQPWTFVVVSDPQIKAKIRQAAEKEEFESYNGRMSNEWLEDLQPFGTDWHKPFLEIAPYLIVVFRKAYDVLPDGTQRKNYYVQESVGIACGFLLAAIHQAGLVALTHTPSPMNFLQKILQRPENERPFLLVPVGYPAEGAMVPDLQRKDKAAVMVVY
In the case of B1, in series [8], the Km is 6.6 ± 0.9 µM, the kcat is 0.09 ± 0.005 s⁻¹ and the catalytic efficiency (kcat/Km) worked out at 13300 ± 1670 M⁻¹ s⁻¹.

B2: drIYD (Danio rerio) (protein)
chain: T1 sequence (E7FDV5 24-295 limits assumed)
B2: in [9], the Km is 8 ± 1 µM, the kcat is 0.0683 ± 0.00333 s⁻¹ and the kcat/Km worked out at 8500 ± 1170 M⁻¹ s⁻¹.

B3: nvIYD (Nematostella vectensis) (protein)
chain: MEVFKALFKSKEAYTVDVDPMKDSDEHDLPRDPLSIRVTGEEEVNHIPYPYFDEIPTEEEMKKKSAEFYKSMKKRRTVRKISSEPVPLEVIENIVRVAGTSPSGAHTEPWTYVVIRDPDLKKQIKEVVEEEEQLNYARRMGEKWVQDLSILKTTWSKPYIETAPYLILIFKQVYGIKPDGDKKVHYYNEISVCISCGLLLAAIQNAGLVTVTSTPMNAGPRLRVLLNRPQNEKLIMLLPVGYPAKDAEVPNLTRKPLEEIMVLK
As to B3, in [10], the Km came to 105 ± 26 µM, the kcat stood at 0.533 ± 0.0667 s⁻¹ and the kcat/Km turned out to be 5000 ± 1330 M⁻¹ s⁻¹.

B4: dpIYD (Daphnia pulex) (protein)
chain: VKRESAIEQINEIEDDDEQSLEDQDVLPILFQYEKPSEADSIRRSEEFYRRMNQRRSVREISSDPVALEVIENIIKTGGTSPSGAHTEPWTFVVVSNLEMKQQIRQIIEAEEEINYKQRMGDVWVQDLQPVGTTWVKEYLTEAPWLILIFKQVHGFKRNGQKKIHYYNEISVSIATGFLLAAIQEAGLVTVTTTPLNCGPSIRVLLGRPVNEKLLLLLPVGYPKVGATVPDFKRKPLHDIMVHYQ
For the molecule B4, in [11], the Km came to 7 ± 1 µM, the kcat amounted to 0.293 ± 0.0133 s⁻¹ and the kcat/Km was found to be 41700 ± 6670 M⁻¹ s⁻¹.

Source of the values: PMC3858845 (Molecular bioSystems, 2014).
